# Results reported in patent US20220112288A1 (published 2022).
# Positions count from the first letter of the chain named.
# B1: 75110_07J02A (antibody, V domains shown)
# VH: EVQLVESGGGLVQPGGSLRLSCAASGFTFSSYWMSWVRQAPGKGLEWVANIKEDGSEKYYVDSVKGRFTISRDNAKNSLYLQMNSLRAEDTAVYYCARDGSYSGYGMDVWGQGTTVTVSS
# VL: AIQMTQSPSSLSASVGDRVTITCRASQGIRNDLGWYQQKPGKAPKLLIYAASSLQSGVPSRFSGRGSGTDFALTISSLQPEDFATYYCLLDYNYPYTFGQGTRLEIK
# notes: Non-clonal AlivaMab Mouse Kappa hybridoma supernatant, captured by anti-mouse IgG Fc (human V regions, mouse Fc)
# B2: 75110_05E05A (antibody, V domains shown)
# VH: QVQLQESGPGLVKPSETLSLTCTVSGGSIGSYYWSWIRQPAGKGLEWIGRIYTSGSTNYNPSLKSRVTMSFDTSKNQFSLKLNSVTAADTAVYYCATDGGVGDSLDYWGQGTLVTVSS
# VL: DIVMTQTPLSLPVTPGEPASISCRSSQSLLDSDDGNTYLDWYLQKPGQSPQLLIYTLSYRASGVPDRFSGSGSGTDFTLKISRVEAEDVGVYYCMQHIEFPFTFGPGTKVDIK
# notes: as for B1
# B3: 75110_03I23A (antibody, V domains shown)
# VH: QVQLQESGPGLVKPSETLSLTCTASGGSITSYYWNWIRQPAGKGLEWIGRIYTSGSTNYNPSLKSRVTMSVDTSKNQFSLKLSSVTAADTAVYYCARDPGYSDAFNIWGQGTMVTVSS
# VL: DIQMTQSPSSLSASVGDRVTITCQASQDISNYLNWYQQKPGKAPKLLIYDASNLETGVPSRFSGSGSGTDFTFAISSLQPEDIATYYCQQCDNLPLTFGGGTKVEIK
# notes: as for B1
# B4: 75110_07N04A (antibody, V domains shown)
# VH: B3 VH with T23S, A24V, G27V, I29S, Y32F, N35S, E46D, N106A
# VL: not shown
# notes: as for B1
# B5: 75110_05G15A (antibody, V domains shown)
# VH: QVQLQESGPGLVKPSQTLSLTCTVSGGSISSGGYFWSWIRQHPGKGLEWIGCIYYSGSTYYIPSLKSRVTISVDTSKNQFSLKLRSVTAADTAVYYCARDGYDYWYFDLWGRGTLVTVSS
# VL: not shown
# B6: 75110_02K11A (antibody, V domains shown)
# VH: QVQLQESGPGLVKPSQTLSLTCTVSGGSISSGFYYWTWIRQHPGKGLEWIGYISYSGNTYYNPSFKSRLTISVDTSKSQFSLKLSSVTAADTAVYYCARDRPSNFDAFDIWGQGTMVTVSS
# VL: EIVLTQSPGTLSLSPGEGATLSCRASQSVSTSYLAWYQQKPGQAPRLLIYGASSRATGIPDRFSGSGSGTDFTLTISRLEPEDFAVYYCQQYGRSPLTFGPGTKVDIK
# notes: as for B1
# B7: 75110_14G10A (antibody, V domains shown)
# VH: EVQLVESGGGLVKPGGSLRLSCAASGFTFSSYSMNWVRQAPGKGLEWVSFISSSSSYIYYADSVKGRFTISRDNAKNSLYLQMNSLRAEDTAVYYCARERGDDYGDYEGAFDIWGQGTMVTVSS
# VL: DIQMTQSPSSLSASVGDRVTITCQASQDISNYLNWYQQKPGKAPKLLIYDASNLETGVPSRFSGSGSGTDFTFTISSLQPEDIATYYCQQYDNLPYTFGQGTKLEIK
# notes: as for B1
# B8: 75110_04D20A (antibody, V domains shown)
# VH: QVQLQESGPGLVKPSETLSLTCTVSNGSISDYYWSWIRQPAGKGLEWIGRIYTSGSTNYNPSLKSRITMSVDTSKNQFSLELSSVTAADTAVYYCARELERYYFYGVDVWGQGTTVTVSS
# VL: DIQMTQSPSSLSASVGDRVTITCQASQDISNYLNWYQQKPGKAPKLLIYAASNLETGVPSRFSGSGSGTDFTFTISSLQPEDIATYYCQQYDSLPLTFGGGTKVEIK
# notes: as for B1
# B9: 75110_06K03A (antibody, V domains shown)
# VH: B8 VH with N26G, D31T, Y52N, N58T, I67V, E81K, F104Y, V107M
# VL: DIQMTQSPSSLSASVGDRVTITCQASQDISNYLNWYQQKPGKAPKLLIYYASILETGVPSRFSGSGSGTDFTFTISSLQPEDIATYYCQQYDSLPLTFGGGTKVEIK
# notes: as for B1
# B10: 75110_04H17A (antibody, V domains shown)
# VH: QVQLQESGPGLVKPSETLSLTCTVSGGSISTYYWSWIRQSAGKGLEWIGRIYTSERPNYNPSLKSRVTMSVDTSKNQFSLKLNSVSAADTAVYYCARELERPYYYGMDVWGQGTTVTVSS
# VL: B9 VL with I2V, D17G, I53N, I83F, S93N
# notes: as for B1
# B11: 75110_06G04A (antibody, V domains shown)
# VH: QVQLLESGPGLVKPSETLSLTCTVSGGSISSYYWSWIRQPAGKGLEWIGRIYISGSTNYNPSLKSRVTMSIDTSENQFSLNLSSVTAADTAVYYCARELERPYYYGMDVWGQGTTVTVSS
# VL: B9 VL with Y50N, I53T, S93N, I106F
# notes: as for B1
# B12: 75110_08F20A (antibody, V domains shown)
# VH: QVQLQESGPGLVKPSETLSLTCSVSGGSISTYYWSWIRQPAGKGLEWIGRICTTENTNYNPSLKSRVTMSIDSSKNQFSLKLSSVTAADTAVYYCARDLERLNYYGMDVWGQGATVTVSS
# VL: B9 VL with N31K, K42I, Y50D, I53N, I83F, L96I, G100Q, K103R, V104L
# notes: as for B1
# B13: 75110_08D24A (antibody, V domains shown)
# VH: QVQLQESGPGLVKPSETLSLTCTVSGGSISGFYWSWIRQPAGKGLEWIGRIYTSENTNYNPSLKSRVTMSVDTSKNQFSLKLSSVTAADTAVYYCARDREGYYYYGMDVWGQGTTVTVSS
# VL: B9 VL with Y50A, I53N, L96I, G100Q, K103R, V104L
# notes: as for B1
# B14: 75110_06C16A (antibody, V domains shown)
# VH: B13 VH with K13T, T21S, G31D, F32Y, A41G, T53S, E55G, N56S, Y94F, G101D
# VL: B9 VL with Q27H, Y50A, I53N, T72S, S93H
# notes: as for B1
# B15: 75110_06E14A (antibody, V domains shown)
# VH: B13 VH with G31N, F32Y, Y33F, T53S, E55G, G101D
# VL: B9 VL with Y50G, S63T, L96I, G100Q, K103R, V104L
# notes: as for B1
# B16: 75110_08M20A (antibody, V domains shown)
# VH: B13 VH with G8D, G31S, F32Y, T53A, E55G, N56S
# VL: B9 VL with N31K, K45N, Y50A, I53N, T85A, L96I, G100Q, K103R, V104L
# notes: as for B1
# B17: 75110_08G08A (antibody, V domains shown)
# VH: B12 VH
# VL: B9 VL with K42I, Y50D, I53N, L96I, G100Q, K103R, V104L
# notes: as for B1
# B18: CD8B364 (antibody, human IgG1, kappa, V domains shown)
# VH: QVQLQQPGAELVKPGASVKLSCKASGYTFTSYWMHWVNRRPGQGLEWIGEINPSNGDSYYNEKFKRKATLTVDISSSTAYMQLSSLTSEDSAVYYCTRSMYYDGRAGAYWGQGTTVTVSS
# VL: DIVLTQSPASLSVATGEKVTIRCITSTDIDDDMNWYQQKPGEPPKLLISEGNTLRPGVPSRFSSSGYGTDFVFTIENTLSEDVADYYCLQSDNMPLTFGAGTKLELKR
# notes: Full-length human IgG1, kappa; V regions recovered from mouse hybridoma
# B19: CD8B240 (antibody, human IgG1, kappa)
# heavy: not shown
# light: DIVMTQSPATLSVTPGDRVSLSCRASQSISDFLHWYQQKSHESPRLLIKYASQSISGIPSRFSGSGSGSDFTLTINSVEPEDVGVYYCQNGHSFPYTFGSGTKLEIKRTVAAPSVFIFPPSDEQLKSGTASVVCLLNNFYPREAKVQWKVDNALQSGNSQESVTEQDSKDSTYSLSSTLTLSKADYEKHKVYACEVTHQGLSSPVTKSFNRGEC
# notes: as for B18
# B20: CD8B191 (antibody, human IgG1, kappa)
# heavy: not shown
# light: B19 light with M4L
# notes: as for B18
# B21: CD8B213 (antibody, human IgG1, kappa, V domains shown)
# VH: EVQLQQSGPELVKPGDSMKMSCKASGYIFTDYYMDWVKQSHGKSLEWIGYIYPNNGITSYNQKFKGRATLTIDKSSSTAYMELHSLTSEDSAVYYCARSIYYDHGGGFPYWGQGTSVTVSS
# VL: DIVLTQSQKFMSTSVGDRVSVTCKASQNVDKYVAWYQQKPGQSPKALIYSASYRYSGVPDRFTGSGSGTDFTLTISNVQSEDLAEYFCQQYNTYPSFGSGTKLEMKR
# notes: as for B18
# B22: CD8B361 (antibody, human IgG1, kappa, V domains shown)
# VH: EVQLQQSGPELVKPGNSVKMSCKASGYTFTDYYMDWVKQSHGTSLEWIGYIYPNNGDTRYNQKFKDKATLTVDKSSSTAYMELHSLTSEDSAVFYCARSIYYDHGGGFPYWGQGTLVTVSA
# VL: B21 VL with L4M, D30G, K31T, S76N, F87L, T93S, S96T, S99G, K102R, M105I
# notes: Full-length human IgG1, kappa; V regions recovered from mouse hybridoma; also called CD8B36I
# B23: CD8B200 (antibody, human IgG1, kappa, V domains shown)
# VH: EVQLQQSGAELVKPGASVKLSCKASGYTFTNYWIHWVKQRPGQGLEWIGNIDPSDSETHYNQKFKDKATLTVDKSSSTAYMQLISLTSEDSAVYYCASGLTGTGYYWGQGTTLTVSS
# VL: DIQMTQTTSSLSASLGDRVTITCRASQDISPYLNWYQQKPEGTIKLLIYYTSKLHSGVPSRFSGSGSGTDYSLTISNLEQEDIATYFCQQDNTLPYTFGSGTKLELKR
# notes: as for B18
# B24: CD8B270 (antibody, human IgG1, kappa, V domains shown)
# VH: B23 VH with E1Q, S7P, K19M, I34M, I84S
# VL: B23 VL with S30R, Y50F
# notes: as for B18
# Target: T1, Recombinant human CD4 (R&D Systems, Cat. 10327-CD) (human, UniProt P01730 26-390, limits assumed)
# T1 construct: Bought soluble recombinant protein used as analyte at 100 nM; also called huCD4
# Assay: BLI (Octet Red384), non-clonal supernatant on AMC sensor, 100 nM human CD4
# Description: (§1) Binding kinetics for nonclonal hybridoma supernatants were screened in high throughput against a single concentration of recombinant human CD4 protein (100 nM). Supernatants were diluted 1:3 in kinetics buffer. […] AMC sensors were used to capture hybridoma antibodies from supernatants.
# (§2) After completion of the kinetic characterization assays, data was analyzed in FORTE BIO analysis software v11. The Y-axis was aligned to the final 5 seconds of the baseline step, with inter-step alignment to the dissociation step. Savitzky-Golay Filtering was used to smooth the data. Kinetic curves were fit to both association and dissociation steps using a 1:1 stoichiometry model. A local fitting was used to calculate single point kinetics for each supernatant for human CD4.
row,Binder,Response
1,B1,0.13
2,B2,0.24
3,B3,0.18
4,B4,0.1
5,B5,0.24
6,B6,0.14
7,B7,0.0363
8,B8,0.2
9,B9,0.14
10,B10,0.16
11,B11,0.12
12,B12,0.32
13,B13,0.21
14,B14,0.07
15,B15,0.12
16,B16,0.19
17,B17,0.13

# Target: T2, human CD8 on human pan T cells (CD4-negative population) (human, UniProt P01732 22-235; P10966 22-210)
# T2 construct: whole, on cells; Endogenous CD8 on primary human pan T cells, read in the CD4-negative gate; also called CD8α/β
# Assay: flow cytometry, 20 nM antibody on human pan T cells, A647 anti-human IgG Fc; geomean ratio in CD4-negative population
# Description: Cell binding. […] Percent CD8 positive population was calculated by percentage of CD8-positive cell count/live cell count.
# T2 sequence (P01732 22-235, chain 1 of 2): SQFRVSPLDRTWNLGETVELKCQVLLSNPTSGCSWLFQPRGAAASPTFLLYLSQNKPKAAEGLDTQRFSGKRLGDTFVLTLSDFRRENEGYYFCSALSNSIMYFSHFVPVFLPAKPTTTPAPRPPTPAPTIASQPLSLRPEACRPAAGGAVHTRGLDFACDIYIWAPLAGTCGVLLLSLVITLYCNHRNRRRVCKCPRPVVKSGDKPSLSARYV
# T2 sequence (P10966 22-210, chain 2 of 2): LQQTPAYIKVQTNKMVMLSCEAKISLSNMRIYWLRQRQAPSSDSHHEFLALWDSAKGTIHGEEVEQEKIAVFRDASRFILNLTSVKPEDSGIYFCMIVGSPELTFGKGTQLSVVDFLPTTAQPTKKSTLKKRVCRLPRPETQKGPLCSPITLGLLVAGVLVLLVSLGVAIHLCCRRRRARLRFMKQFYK
row,Binder,Cell Binding to Human PanT Signal/Background (of CD4 negative population)
1,B18,1560
2,B19,1310
3,B20,2440
4,B21,827
5,B22,1050
6,B23,1990
7,B24,2500

# Target: T1, Recombinant human CD4 (R&D Systems, …)
# Assay: BLI (Octet Red384), non-clonal supernatant on AMC sensor, 100 nM human CD4, 1:1 local fit;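 further: hybridoma antibodies captured from supernatant, single CD4 concentration as analyte, association and dissociation phases fitted together, giving single-point kinetic estimates per supernatant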
# Description: as §1, §2
Binder,Kd,koff,kon
B1,0.56 nM,3.83e-05 s⁻¹,68400 M⁻¹ s⁻¹
B2,0.95 nM,0.00013 s⁻¹,140000 M⁻¹ s⁻¹
B3,8.6 nM,0.0012 s⁻¹,140000 M⁻¹ s⁻¹
B4,< 0.001 nM,< 1e-07 s⁻¹,140000 M⁻¹ s⁻¹
B5,< 0.001 nM,< 1e-07 s⁻¹,78000 M⁻¹ s⁻¹
B6,17 nM,0.0022 s⁻¹,130000 M⁻¹ s⁻¹
B7,< 0.001 nM,< 1e-07 s⁻¹,78800 M⁻¹ s⁻¹
B8,0.88 nM,0.00013 s⁻¹,150000 M⁻¹ s⁻¹
B9,6.8 nM,0.0019 s⁻¹,280000 M⁻¹ s⁻¹
B10,9 nM,0.00097 s⁻¹,110000 M⁻¹ s⁻¹
B11,14 nM,0.001 s⁻¹,75000 M⁻¹ s⁻¹
B12,1.9 nM,0.00026 s⁻¹,140000 M⁻¹ s⁻¹
B13,34 nM,0.006 s⁻¹,170000 M⁻¹ s⁻¹
B14,9.7 nM,0.0024 s⁻¹,250000 M⁻¹ s⁻¹
B15,12 nM,0.002 s⁻¹,170000 M⁻¹ s⁻¹
B16,3.6 nM,0.00053 s⁻¹,150000 M⁻¹ s⁻¹
B17,3.4 nM,0.00096 s⁻¹,280000 M⁻¹ s⁻¹
